Experimental data taken from the supplement of paper PMC11811203.

B1: THAP1; numbered along this chain (parent)
chain: MVQSCSAYGCKNRYDKDKPVSFHKFPLTRPSLCKEWEAAVRRKNFKPTKYSSICSEHFTPDCFKRECNNKLLKENAVPTIFLCTEPHDKKEDLLEPQEQLPPPPLPPPVSQVDAAIGLLMPPLQTPVNLSVFCDHNYTVEDTMHQRKRIHQLEQQVEKLRKKLKTAQQRCRRQERQLEKLKEVVHFQKEKDDVSERGYVILPNDYFEIVEVPA

Variants of: B1
Experiment: THAP1 transcriptional activity (GFP+/GFP- enrichment relative to wild-type constructs) (ratio to WT); higher = more THAP1 activity (PSMB5 reporter activation)
Conditions: with PSMB5 promoter-GFP reporter
In short: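 Activity values are replicate-mean bright/dim read fold changes divided by the mean of wild-type synonymous constructs. They come from a human THAP1 site-saturation library (residues 2–213, each changed to all 20 amino acids) delivered by lentivirus at MOI ~0.3, in duplicate, into THAP1-knockout HEK-293T cells with mClover3 at endogenous PSMB5. BFP+ cells were sorted into GFP-dim and GFP-bright bins after five days, and variants were counted by Illumina sequencing of genomic DNA amplicons.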

THAP1 transcriptional activity of substitutions, site by site:
V183: D 0.954 | R 0.844 | N 1.17 | Y 0.941 | M 0.882 | W 0.798 | G 0.742 | L 0.753 | C 1.04 | A 1.11 | H 0.519 | Q 1.52 | T 1.02 | S 1.48 | P 0.678 | E 0.876 | F 0.721
R172: S 0.428 | W 0.267 | E 0.34 | C 0.157 | G 0.234 | A 0.396 | I 0.34 | D 0.201 | L 0.328 | V 0.288 | Y 0.252 | Q 0.364 | N 0.41 | F 0.247 | H 0.458 | K 0.684 | P 0.241
C170: F 0.35 | P 0.15 | S 0.425 | E 0.194 | G 0.353 | K 0.26 | N 0.728 | Q 0.604 | L 0.894 | M 0.824 | W 0.208 | A 0.663 | T 0.457 | R 0.609 | D 0.173 | Y 0.702 | H 0.411
Q173: E 0.149 | G 0.386 | L 0.611 | S 0.592 | T 1.1 | R 0.58 | F 0.425 | W 0.284 | H 0.693 | V 1.27 | A 0.888 | D 0.232
L180: Q 0.399 | A 0.484 | M 0.868 | C 0.43 | V 0.58 | I 0.806 | W 0.575 | R 0.417 | N 0.473 | K 0.367 | D 0.256 | P 0.166 | S 0.482 | Y 0.439
K188: P 0.419 | I 0.858 | V 0.826 | C 0.792 | Y 0.683 | G 1.05 | A 1.14 | E 0.506 | H 0.646 | S 0.937 | M 0.605 | L 0.724 | N 1.03 | Q 0.954 | R 1.34
E189: M 1.09 | N 0.878 | H 0.949 | A 1.22 | Q 1.11 | K 1.1 | D 1.2 | P 0.761 | L 1.33 | F 0.853
Q168: W 0.157 | G 0.391 | N 0.781 | V 0.249 | P 0.186 | S 0.477 | L 0.433 | R 0.446 | Y 0.173 | H 0.394 | T 0.711 | K 0.394
E182: A 0.871 | W 0.66 | S 0.933 | G 0.726 | I 0.428 | D 1.34 | K 1.56 | Y 0.58 | V 0.698 | H 0.73 | C 0.657 | F 0.467 | P 0.778 | T 0.811 | R 1.04
R171: S 0.173 | H 0.344 | V 0.142 | L 0.314 | C 0.256 | P 0.186 | G 0.285 | M 0.36 | D 0.228 | W 0.258 | I 0.359 | T 0.172 | K 0.627 | E 0.218 | N 0.229
Q187: R 1.03 | Y 0.809 | F 0.78 | L 0.681 | P 0.385 | T 0.99 | D 0.783 | S 1.45 | N 0.727 | H 0.853 | K 0.719 | A 1.21 | E 0.824 | I 0.687 | C 0.911 | V 0.652 | W 0.568 | G 0.874
Q176: D 0.41 | N 0.518 | L 0.707 | W 0.223 | V 0.499
